Substitutions are numbered along the chain they refer to. Names may count otherwise. Each block holds one binder with its values, some of them ahead of it.
Tests used:
membrane EGFR = membrane EGFR (human, UniProt P00533 25-1210); assay: cell-based or functional assay
[1] = molecular target: T1, CD20 on the cell surface of Raji cells (human, UniProt P11836 1-297); assay: flow cytometry on Raji cells
T1 construct: whole, on cells; also called CD20 (Raji)
T1 sequence (looked up): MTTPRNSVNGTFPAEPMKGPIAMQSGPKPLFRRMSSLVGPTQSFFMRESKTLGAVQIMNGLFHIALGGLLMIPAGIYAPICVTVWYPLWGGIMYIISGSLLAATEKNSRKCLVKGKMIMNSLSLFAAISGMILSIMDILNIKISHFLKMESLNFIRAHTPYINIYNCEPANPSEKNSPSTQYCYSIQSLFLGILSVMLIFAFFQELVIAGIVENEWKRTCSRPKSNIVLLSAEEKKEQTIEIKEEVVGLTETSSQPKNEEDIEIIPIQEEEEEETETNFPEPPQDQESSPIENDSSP
Text: (§1) Raji cell was used for detecting human B cell binding. […] Cells were washed in PBS buffer containing 2% FBS. […] Cells were washed and signal was detected with a BD FACSVerse flow cytometer according to manufacture's protocols.

[2] = molecular target: T2, cynomolgus CD20 on transiently transfected HEK 293 cells (cynomolgus, UniProt M4ZHZ6 1-297); assay: flow cytometry on HEK 293 cells transfected with cynoCD20
T2 construct: whole, on cells; also called cynoCD20
T2 sequence: T1 sequence (looked up) with S25P, F31L, T51A, A157V, K217R, N226S, I227V, T239V
Text: as §1

[3] = molecular target: T1, CD20 on the cell surface of Raji cells; assay: flow cytometry on Raji cells, 100 nM

B1: FIT013a cMet (h1332 (13.3.2L-A91T,H-42K,S97T))/EGFR (panitumumab) (bispecific antibody, human IgG1, kappa)
chain 1: not shown
chain 2: QVQLVQSGAEVKKPGASVKVSCKASGYTFTSYGFSWVRQAPGQGLEWMGWISASNGNTYYAQKLQGRVTMTTDTSTSTAYMELRSLRSDDTAVYYCARVYADYADYWGQGTLVTVSSASTKGPSVFPLAPSSKSTSGGTAALGCLVKDYFPEPVTVSWNSGALTSGVHTFPAVLQSSGLYSLSSVVTVPSSSLGTQTYICNVNHKPSNTKVDKKVEPKSC
chain 3: not shown
EGFR Depletion (%), H441 cell, FACS after >16 hrs at 37 C (membrane EGFR): 65.9%

B3: OKT3/Ofatumumab FIT7-Ig (bispecific antibody, human IgG1, kappa)
chain 1: not shown
chain 2: not shown
chain 3: not shown
notes: FIT-Ig of 3 polypeptides, two copies of each chain, human IgG1 Fc
Binding Intensity by FACS (MFI) [3]: 291 MFI

Continued, values first:

binding result [1]: binds
binding result [2]: binds
B2: FIT018a CD20 (Ofatumumab)/CD3 mAb (bispecific antibody, human IgG1, kappa, lambda, L234A L235A)
chain 1: not shown
chain 2: EVQLVESGGGLVQPGRSLRLSCAASGFTFNDYAMHWVRQAPGKGLEWVSTISWNSGSIGYADSVKGRFTISRDNAKKSLYLQMNSLRAEDTALYYCAKDIQYGNYYYGMDVWGQGTTVTVSSASTKGPSVFPLAPSSKSTSGGTAALGCLVKDYFPEPVTVSWNSGALTSGVHTFPAVLQSSGLYSLSSVVTVPSSSLGTQTYICNVNHKPSNTKVDKKVEPKSC
chain 3: ELVVTQEPSLTVSPGGTVTLTCRSSTGAVTTSNYANWVQQKPGQAPRGLIGGTNKRAPGTPARFSGSLLGGKAALTLSGVQPEDEAEYYCALWYSNLWVFGGGTKLTVLGQPKAAPSVTLFPPSSEELQANKATLVCLISDFYPGAVTVAWKADSSPVKAGVETTTPSKQSNNKYAASSYLSLTPEQWKSHRSYSCQVTHEGSTVEKTVAPTECS

Binding Intensity by FACS (MFI) [3]: 274 MFI
B4: OKT3/Ofatumumab FIT8-Ig (bispecific antibody, human IgG1, kappa)
chain 1: not shown
chain 2: not shown
chain 3: not shown
notes: as for B3

EGFR Depletion (%), H441 cell, FACS after >16 hrs at 37 C (membrane EGFR): 0%
B5: cMet antibody h1332 (13.3.2L-A91T,H-42K,S97T) (antibody, V domains shown)
VH: QVQLVQSGAEVKKPGASVKVSCKASGYTFTSYGFSWVRQAPGQGLEWMGWISASNGNTYYAQKLQGRVTMTTDTSTSTAYMELRSLRSDDTAVYYCARVYADYADYWGQGTLVTVSS
VL: DIQMTQSPSSVSASVGDRVTITCRASQGINTWLAWYQQKPGKAPKLLIYAASSLKSGVPSRFSGSGSGTDFTLTISSLQPEDFATYYCQQANSFPLTFGGGTKVEIK
